# Where a chain is given by its changes, count along the chain named. Names may count otherwise.
# B1: anti-CDH19 antibody 2G6 (Ab ID 13588) (antibody, human IgG1, lambda, V domains shown)
# VH: QVQLVESGGGVVQPGRSLRLSCAASGFTFSSYGMHWVRQAPGKGLEWVAFIWYDGSNKYYADSVKDRFTISRDNSKNTLYLQMKSLRAEDTAVYYCARRAGIIGTIGYYYGMDVWGQGTTVTVSS
# VL: SYELTQPPSVSVSPGQTASITCSGDRLGEKYTCWYQQRPGQSPLLVIYQDTKRPSGIPERFSGSNSGNTATLTISGTQAMDEADYYCQAWDSSTVVFGGGTKLTVLG
# notes: Bin 4
# B2: hu anti-<huCDH19> 4B10 (Ab ID 13590) (antibody, V domains shown)
# VH: QVQLVESGGGVVQPGRSLRLSCAASGFTFSSYDMHWVRQAPGKGLEWVAVISYDGTNEYYADSVKGRFTISRDTSKNTLYLQMNSLRAEDTAVYYCARERYFDWSFDYWGQGTLVSVSS
# VL: EIVLTQSPGTLSLSPGERATLSCRASQSVSNTYLAWYHQRPGQAPRLLIYGASSRATGIPDRFSGSGSGTDFALTISSLEPEDFAVYYCQQYSNSWTFGQGTKVEIKR
# notes: huIgG1z / huKLC; Bin 4
# B3: hu anti-<huCDH19> 26D1.1 (Ab ID 13882) (antibody, human IgG1, lambda, V domains shown)
# VH: QVQLVQSGAEVKKPGASVKVSCKASRYTFTSYYMSWVRQAPGQGLEWMGIIHPSGGDTTYAQKFQGRVTMTGDTSTSTVYMELSSLRSEDTAVYYCARGGIKLWLHFDYWGQGTLVTVSS
# VL: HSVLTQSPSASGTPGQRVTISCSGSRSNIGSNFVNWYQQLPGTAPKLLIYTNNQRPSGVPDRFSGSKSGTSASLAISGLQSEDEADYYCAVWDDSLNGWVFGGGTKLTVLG
# notes: huIgG1z / huLLC-C2; Bin 2
# B4: hu anti-<huCDH19> 4A9 (Ab ID 13589) (antibody, human IgG1, lambda, V domains shown)
# VH: QVQLQESGPGLVKPSETLSLTCTVSGGSISGYYWSWIRQPPGKGLEWFAYFSYSGSTNYNPSLKSRVTLSVDTSKNQFSLKLSSVTAADTAVYYCARNWAFHFDFWGQGTLVTVSS
# VL: QSVLTQPPSVSGAPGQRVTISCTGSSSNIGTGYAVHWYQQFPGTAPKLLIYGNNNRPSGVPDRFSGSKSGTSASLAITGLQAEDEADYYCQSYDSRLSGWVFGGGTKLTVLG
# notes: huIgG1z / huLLC-C1; Bin 1
# B5: hu anti-<huCDH19> 25F8.1 (1-469)(F90Y) VH::huIgG1z + 25F8.1 (1-235)(K45Q,S102A,D111E) VL::huLLC-C2 (Ab ID 14096) (antibody, V domains shown)
# VH: B3 VH with R26G, M34I, S35H, H52N, D57S, T59R, G72R, K102Q
# VL: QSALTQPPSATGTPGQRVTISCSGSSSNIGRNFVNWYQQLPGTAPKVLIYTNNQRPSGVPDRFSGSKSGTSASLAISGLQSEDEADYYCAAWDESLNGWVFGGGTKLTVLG
# notes: Engineered variant of 25F8; the entries already carry the changes; Bin 2
# B6: anti-CDH19 antibody 4A2 (Ab ID 13592) (antibody, human IgG1, kappa, V domains shown)
# VH: QVQLQESGPGLVKPSQTLSLTCTVSGGSISSSGYYWSWIRQHPGKGLEWIGYIYYTGSAYYNPSLKSRVTISVDTSKNQFSLKLSSVTAADTAVYYCARDGSSGWYFQYWGQGTLVTVSS
# VL: EIVLTQSPGTLSLSPGERATLSCRASRNISSSYLAWYQQKPGQAPRLLIYGPSSRATGIPDRFSGSGSGTDFTLTISRLEPEDFTVYYCQQYGSSFTFGPGTKVDIKR
# notes: Bin 4
# Molecular target: T1, muCDH19(44-770)::huCDH19(271) with leader and FLAG (construct Z) (human/mouse chimera)
# T1 construct: leader (1-43 of the entry) left out
# T1 chain: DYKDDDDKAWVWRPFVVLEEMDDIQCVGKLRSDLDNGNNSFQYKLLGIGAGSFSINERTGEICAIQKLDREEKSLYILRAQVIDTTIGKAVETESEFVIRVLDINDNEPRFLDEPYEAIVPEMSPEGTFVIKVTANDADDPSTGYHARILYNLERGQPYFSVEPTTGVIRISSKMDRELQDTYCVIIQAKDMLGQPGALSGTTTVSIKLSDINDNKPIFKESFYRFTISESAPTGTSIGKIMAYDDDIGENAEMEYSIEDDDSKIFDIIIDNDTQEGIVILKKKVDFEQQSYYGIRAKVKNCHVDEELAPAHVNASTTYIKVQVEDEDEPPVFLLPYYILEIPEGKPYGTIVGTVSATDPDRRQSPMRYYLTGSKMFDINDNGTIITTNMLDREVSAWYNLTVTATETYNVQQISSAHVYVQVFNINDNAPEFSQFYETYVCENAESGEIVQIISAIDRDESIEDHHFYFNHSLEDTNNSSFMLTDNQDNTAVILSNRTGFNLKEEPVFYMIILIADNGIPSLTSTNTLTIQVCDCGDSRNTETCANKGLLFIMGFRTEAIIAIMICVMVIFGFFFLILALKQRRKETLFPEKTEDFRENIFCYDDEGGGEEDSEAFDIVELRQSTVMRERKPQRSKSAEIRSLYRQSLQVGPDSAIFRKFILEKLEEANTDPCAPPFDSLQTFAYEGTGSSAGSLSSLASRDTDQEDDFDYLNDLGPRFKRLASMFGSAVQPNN
# Experiment: flow cytometry, transfected 293T cells, 2 mM CaCl2
# Procedure: (§1) The following binding assay was completed in presence of 2 mM CaCl₂). […] Cells were then washed one time and the amount of cell associated Alexa647-labelled Ab was quantitated by flow cytometry. The experiments included mock transfected controls.
row,Binder,binding result
1,B1,binds
2,B2,no binding (tested: 5 ug/ml)

# Molecular target: T2, huCDH19(44-141)::muCDH19(140-770) with Flag tag (construct B, Hu EC1) (human/mouse chimera)
# T2 construct: leader left out; the entry starts at residue 44; also called C137897
# Experiment: flow cytometry, transfected 293T cells
# Source text: (§2) The experiment included assaying the anti-CDH19 antibodies against mouse Cadherin19 to determine suitability for binning on these human/mouse chimeras.
row,Binder,binding result
1,B3,binds
2,B1,binds
3,B4,binds

# Molecular target: T3, huCDH19(44-249)::muCDH19(248-770) with Flag tag (construct C, Hu EC1-2) (human/mouse chimera)
# T3 construct: leader left out; the entry starts at residue 44; also called C137896
# Experiment: flow cytometry, transfected 293T cells
# Source text: as §2
row,Binder,binding result
1,B3,binds
2,B1,binds
3,B4,binds

# Molecular target: T4, rhCDH19(1-43)::FLAG::rhCDH19(44-141)::raCDH19(140-247)::rhCDH19(250-772) (construct V, ra EC2) (rhesus macaque/rat chimera, UniProt Q9H159 44-772 (human entry))
# T4 construct: leader (1-43 of the entry) left out
# T4 chain: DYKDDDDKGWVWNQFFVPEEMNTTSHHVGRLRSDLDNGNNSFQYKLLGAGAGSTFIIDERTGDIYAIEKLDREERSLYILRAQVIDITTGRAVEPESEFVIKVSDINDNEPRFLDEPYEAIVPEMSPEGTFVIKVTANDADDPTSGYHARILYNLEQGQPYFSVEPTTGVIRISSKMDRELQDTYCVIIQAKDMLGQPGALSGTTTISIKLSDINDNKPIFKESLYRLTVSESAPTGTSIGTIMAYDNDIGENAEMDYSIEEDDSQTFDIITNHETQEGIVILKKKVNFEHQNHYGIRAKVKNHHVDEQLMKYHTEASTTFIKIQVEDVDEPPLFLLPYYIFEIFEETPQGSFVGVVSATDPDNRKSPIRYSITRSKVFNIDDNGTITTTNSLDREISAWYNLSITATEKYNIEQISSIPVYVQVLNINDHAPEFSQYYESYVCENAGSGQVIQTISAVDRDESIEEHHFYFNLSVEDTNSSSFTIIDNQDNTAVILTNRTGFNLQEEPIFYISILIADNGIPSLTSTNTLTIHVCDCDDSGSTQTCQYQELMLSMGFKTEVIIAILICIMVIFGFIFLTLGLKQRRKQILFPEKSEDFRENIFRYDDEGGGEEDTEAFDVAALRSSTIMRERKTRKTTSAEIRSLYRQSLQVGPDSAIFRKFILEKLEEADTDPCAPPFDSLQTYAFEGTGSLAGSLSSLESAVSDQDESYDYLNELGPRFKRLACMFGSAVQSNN
# Experiment: flow cytometry, transfected 293T cells, 2 mM CaCl2
# Procedure: as §1
row,Binder,binding result
1,B3,no binding (tested: 5 ug/ml)
2,B4,no binding (tested: 5 ug/ml)
3,B5,no binding (tested: 5 ug/ml)

# Molecular target: T5, Cyno Cadherin-19 (cynomologous monkey (Macaca …, UniProt Q9H159 44-772 (human entry)))
# T5 construct: also called cynomologous monkey CDH-19
# T5 chain: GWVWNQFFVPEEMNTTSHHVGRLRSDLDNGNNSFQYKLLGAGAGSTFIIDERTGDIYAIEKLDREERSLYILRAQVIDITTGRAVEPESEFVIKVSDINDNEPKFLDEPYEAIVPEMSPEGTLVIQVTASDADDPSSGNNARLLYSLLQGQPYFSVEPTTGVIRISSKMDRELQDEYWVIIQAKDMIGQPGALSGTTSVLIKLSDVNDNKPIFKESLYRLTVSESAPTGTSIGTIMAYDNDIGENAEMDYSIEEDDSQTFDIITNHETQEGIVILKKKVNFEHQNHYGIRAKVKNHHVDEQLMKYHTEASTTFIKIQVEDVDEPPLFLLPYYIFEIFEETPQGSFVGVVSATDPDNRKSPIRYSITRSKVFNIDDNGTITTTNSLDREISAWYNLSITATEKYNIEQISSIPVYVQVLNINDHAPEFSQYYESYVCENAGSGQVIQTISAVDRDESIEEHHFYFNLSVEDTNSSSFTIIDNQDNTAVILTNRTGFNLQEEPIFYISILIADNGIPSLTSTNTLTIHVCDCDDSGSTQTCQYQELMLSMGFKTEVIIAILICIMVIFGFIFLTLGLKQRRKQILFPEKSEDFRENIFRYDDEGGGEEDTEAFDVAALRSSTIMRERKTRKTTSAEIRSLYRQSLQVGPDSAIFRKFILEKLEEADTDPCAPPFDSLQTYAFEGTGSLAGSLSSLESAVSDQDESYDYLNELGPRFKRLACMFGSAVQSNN
# Experiment: FACS, recombinant cynomologous CDH-19
row,Binder,binding result
1,B3,binds
2,B1,binds
3,B4,binds
4,B2,binds
5,B6,binds

# Molecular target: T6, Human Cadherin-19 (human, UniProt Q9H159 44-772)
# T6 construct: also called CDH19; huCDH19
# Experiment: FACS, endogenous CDH-19 on CHL-1 and Colo699 tumor cells
# Procedure: FACS binding assays were performed to evaluate the binding of the anti-Cadherin-19 receptor specific antibodies to endogenous Cadherin-19 receptor expressed on the CHL-1 tumor cell lines.
# FACs assays were performed by incubating hybridoma supernatants with 10,000 to 25,000 cells in PBS/2% Fetal bovine serum/2 mM Calcium Chloride at 4° C. for one hour followed by two washes with PBS/2% Fetal bovine serum/2 mM Calcium Chloride. Cells were then treated with florochrome-labeled secondary antibodies at 4° C. followed by one wash. The cells were resuspended in 50 μl of PBS/2% FBS and antibody binding was analyzed using a FACSCalibur™ instrument.
row,Binder,binding result
1,B3,binds
2,B1,binds
3,B4,binds
4,B2,binds

# Reference: patent US20220127354A1 (Amgen, published 2022)
